According to the supplement of paper PMC10567573:
± gives the standard deviation.

Assay: protein stability index of a GFP-peptide fusion (GPS, HEK-293T) (PSI 1-6); higher = more stable
[1] = treatment: DMSO, c terminus: a fixed tail appended
[2] = treatment: MLN4924 1 uM, 8 h, c terminus: a fixed tail appended
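Further: 24-mer peptide tiles fused after GFP, lentivirally expressed, FACS-sorted into six equal bins by GFP/DsRed ratio, decoded by Illumina sequencing, PSI is the read-weighted mean bin number.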

Sequence | protein stability index [1] | protein stability index [2] | protein stability index (treatment: DMSO, c terminus: native) | protein stability index (treatment: MLN4924 1 uM, 8 h, c terminus: native)
DPSSTKPGTLLKTSPSPERSLLLK [TRIM14] | 4.59 ± 0.2 | 4.67 ± 0.21 | – | –
HLVAGGGAGAVSRTCTAPLDRLKV [SLC25A25] | 3.11 ± 0.35 | 3.25 ± 0.22 | – | –
MMVNLRACSAPGGLVPSEKPPMMP [C2CD2L] | 2.14 ± 0.26 | 2.29 ± 0.06 | – | –
FNNGEYAEAEALYSAYIRRCACAA [TTC32] | 2.39 ± 0.19 | 2.64 ± 0.46 | – | –
AIIRERSSCVKILLDHNANIDIQN [ASB7] | 2.52 ± 0.4 | 2.64 ± 0.26 | – | –
MELLRTITYQPAASTKMCEQALGK [PLK2] | 2.46 ± 0.47 | 3.06 ± 0.43 | – | –
ETKLDLISKGEEPRAGKEESGVSV [SLC29A1] | 5.44 ± 0.15 | 5.39 ± 0.52 | – | –
EQHVHNEKSVLKEVSHPFLIRLFW [PRKX] | 2.25 ± 0.25 | 2.26 ± 0.081 | – | –
AGSVFGGGFGGGVGGGFGGGFGGG [KRT15] | 2.56 ± 0.23 | 2.65 ± 0.21 | – | –
GRVLRKLPFLAHALYVQAPTVTIE [TRIP13] | 2.32 ± 0.54 | 2.05 ± 0.45 | – | –
SCLKAIVLFTSDACGLSDVAHVES [NR2F2] | 2.43 ± 0.7 | 2.08 ± 0.36 | – | –
AVNRARRPLARPIKPNEILPPEKG [RHOBTB2] | 4.24 ± 0.12 | 4.27 ± 0.12 | – | –
GECRQMSSSSQIGNDSFQLQVTED [CLCN6] | 5.06 ± 0.22 | 5.09 ± 0.25 | – | –
GKRRKDEISVDSLDFSKKILHTAW [PPP2R2B] | 2.34 ± 0.2 | 2.52 ± 0.049 | – | –
VFITYSMDTAMEVVKFVNFLLVNG [TRAF3IP2] | 3.39 ± 0.062 | 2.06 ± 0.64 | – | –
NMMKVLRGHQNWVYSCAFSPDSSM [WSB1] | 2.37 ± 0.96 | 2.64 ± 0.54 | – | –
STPAPAERPLPNPEGLDSDFLAVL [SLA] | 4.29 ± 0.35 | 4.26 ± 0.21 | – | –
ESDTDIYETVAAATSESTTVEPGK [DRICH1] | 5.66 ± 0.14 | 5.6 ± 0.2 | – | –
ESSSRGEAGAPGEEDIQGPTKADT [CHGB] | 5.64 ± 0.29 | 5.43 ± 0.32 | – | –
LELLLDASALTLVLGGRRLRRAWF [SCNN1D] | 2.94 ± 0.81 | 2.4 ± 0.58 | – | –
CEDLDELHYQDTDSDVPEQRDSKC [MYBL2] | 5.65 ± 0.37 | 5.54 ± 0.24 | – | –
LAPDFDRWLDESDAEMELRAKEEE [HACD3] | 5.52 ± 0.12 | 5.45 ± 0.21 | – | –
SFAQATQLGDLHTCLMMDMKACQE [INTS3] | 3.21 ± 0.19 | 3.3 ± 0.43 | – | –

Sequence | protein stability index [1] | protein stability index [2] | protein stability index (treatment: DMSO, c terminus: native) | protein stability index (treatment: MLN4924 1 uM, 8 h, c terminus: native)
HTPTPFKNALEKYGPLKPLPQTPH [MYBL2] | 3.56 ± 0.28 | 3.91 ± 0.35 | – | –
SPSPSSRVTVSRASSSRSVRTTRG [LMNB1] | 5.08 ± 0.27 | 5.12 ± 0.09 | – | –
FDPIVLLPCDLPKVVSRAENLSVP [LPCAT4] | 2.8 ± 0.2 | 2.87 ± 0.3 | – | –
YHSQDRYEFSSHITRGEHRFHMS [IKZF1] | – | – | 2.85 ± 0.39 | 2.86 ± 0.58
DPVRQCAECALVSLKEAEFYDKQL [ZFYVE21] | 3.62 ± 0.046 | 3.67 ± 0.32 | – | –
QEHPRQQLATSSFLLFLLTGIVSV [MOSPD3] | 3.32 ± 0.49 | 2.83 ± 0.096 | – | –
VLALRNMKNLLFSEMWDIFLVRLL [MFSD9] | 2.13 ± 0.44 | 2.14 ± 0.49 | – | –
YEYTSCTTFSTTSGYMEGYYTFHF [FBXO3] | 3.37 ± 0.42 | 3.2 ± 0.31 | – | –
YRRHVLGIVLQGPALCFAAAIFSL [TMEM175] | 2.93 ± 0.18 | 2.85 ± 0.39 | – | –
QLQALNRRFQQTQYLALPERAELA [DLX1] | 3.05 ± 0.28 | 3.23 ± 0.085 | – | –
VSSSEQLQSCQAEIIELRRTVNAL [KRT34] | 3.02 ± 0.2 | 2.77 ± 0.3 | – | –
NMPETLPNNSCYSAGIAKLEEGDE [TNFSF13B] | 5.35 ± 0.23 | 5.5 ± 0.21 | – | –
FHVNLGKESRAQTLQNGRRHIHHL [BRF1] | 2.66 ± 0.34 | 2.93 ± 0.41 | – | –
LHRESSNFDSIYICPSTFACAQLA [HDAC6] | 2.15 ± 0.46 | 2.11 ± 0.16 | – | –
AIELFHSYRETRRKEGIVKLKPHE [PTPN9] | 3 ± 0.2 | 3.25 ± 0.27 | – | –
KGVDFQKFCMNGAALCALGKDCFL [ETS1] | 2.62 ± 0.4 | 2.09 ± 0.28 | – | –
NTRFVVDPSIFTAQPNTMLGRMFG [BTBD10] | 2.51 ± 0.52 | 2.44 ± 0.16 | – | –
FLIEGPLINTIRVVCASYEDYGHW [PLEKHN1] | 3.56 ± 0.49 | 2.58 ± 0.94 | – | –
ESSTREVVFPYTSKSCMRAVLEYL [RHOBTB2] | 2.74 ± 0.13 | 2.32 ± 0.25 | – | –
SRREREPEPPAAVDFLEPDSGTCP [FCHO1] | 5.43 ± 0.22 | 5.44 ± 0.33 | – | –
EDEEPQEPNRLETGEAGEELDLRL [RTN2] | 5.73 ± 0.12 | 5.52 ± 0.4 | – | –
ARRKLKGAILTTMLATRNFSGGKS [CAMK2A] | 3.21 ± 0.37 | 3.34 ± 0.47 | – | –
GEDIPEKIKDEVHPEVKCVGSVAL [C8orf76] | 4.84 ± 0.39 | 4.81 ± 0.31 | – | –

Sequence | protein stability index [1] | protein stability index [2] | protein stability index (treatment: DMSO, c terminus: native) | protein stability index (treatment: MLN4924 1 uM, 8 h, c terminus: native)
KPLYPDDYVHISSKPCDLHCTTVD [ADAMTSL2] | 4.29 ± 0.35 | 4.21 ± 0.36 | – | –
APSIEQRLQEVRESIRRAQVSQVK [FCHSD1] | 4.27 ± 0.39 | 4.35 ± 0.34 | – | –
NYASIIRRDCMWSGFSARERLERA [MYCL] | 2.78 ± 0.3 | 2.77 ± 0.3 | – | –
DEPVCGRPLGIRAGPNGTLFVADA [APMAP] | 3.83 ± 0.22 | 4.03 ± 0.27 | – | –
TRKHHCRRCGKCFCDRCCSQKVPL [ZFYVE21] | 3.31 ± 0.27 | 3.58 ± 0.19 | – | –
PTSGIVGALMEVMQKRSKAIHSSD [WASL] | 3.14 ± 0.14 | 3.39 ± 0.19 | – | –
NSLFIDRQKCMAHRTRYPTILQLA [TEKT4] | 2.23 ± 0.34 | 2.12 ± 0.23 | – | –
DGTSQSTGGSADLFGGFADFGSAA [CLINT1] | 4.71 ± 0.25 | 4.46 ± 0.27 | – | –
ELKVKDSQPIDLSACTVALHIFQL [TRIP13] | 2.58 ± 0.47 | 2.15 ± 0.6 | – | –
MGMNMNIGMSAAGMGLTGTMGMGM [CLINT1] | 2.48 ± 0.18 | 2.2 ± 0.28 | – | –
ISIPITGDTLRTFSLVLVLDLSKP [DYNC2LI1] | 2.69 ± 0.62 | 2.865 ± 0.02 | – | –
ENRGIVVLGINRAYGKNSLSKNLI [AUH] | 2.84 ± 1.2 | 2.44 ± 1.2 | – | –
HLRNKTEDLEATSEHFKTTSQKVA [VAMP8] | 5.01 ± 0.24 | 5.07 ± 0.14 | – | –
APLSNGLCCAFSTDGSVLAAGTHD [WSB1] | 4.06 ± 0.43 | 3.9 ± 0.24 | – | –
GRKDITSILRAPAYPLELQGQPDP [MOSPD3] | 4.26 ± 0.15 | 4.28 ± 0.35 | – | –
CVDVVFYNPDLKKVVEAHKIVLCA [RHOBTB3] | 3.01 ± 1.1 | 2.74 ± 0.81 | – | –
TGGADAYYEMGIHCWDVAGAGIIV [IMPA1] | 2.83 ± 0.79 | 2.97 ± 0.85 | – | –
KRFEKQLTQIDGTLSTIEFQREAL [CHMP4C] | 3.98 ± 0.17 | 4 ± 0.27 | – | –
GPFDQGSPFAQELLDDGQQASPYH [ELF3] | 5.16 ± 0.18 | 4.96 ± 0.13 | – | –
DDFHTNDVCSFPNALVTKLLLDCG [FEM1B] | 2.55 ± 0.26 | 2.44 ± 0.2 | – | –
LFAIANGFSPSYEFFAVTRFLVGM [SLC22A15] | 3.06 ± 0.34 | 2.57 ± 1.3 | – | –
FECAWNGSDSVIMTGAYNNFFRMF [PPP2R2C] | 2.5 ± 0.35 | 2.35 ± 0.6 | – | –
YDMSDTNSDPEVVNVDNLLAAAVV [C18orf25] | 4.06 ± 0.35 | 4.02 ± 0.26 | – | –

Sequence | protein stability index [1] | protein stability index [2] | protein stability index (treatment: DMSO, c terminus: native) | protein stability index (treatment: MLN4924 1 uM, 8 h, c terminus: native)
DHQDSDEFCRNTLCAPEVISLINT [FAF2] | 3.72 ± 0.37 | 3.67 ± 0.38 | – | –
IEGLKEELAYLRKNHEEEMLALRG [KRT16] | 3.79 ± 0.35 | 3.77 ± 0.32 | – | –
LHEALQDYEAGQHMEDPRRAGKML [ESRRG] | 4.74 ± 0.29 | 4.68 ± 0.38 | – | –
DTAHDFRAKCRNMEHALREKAKAF [TRIM35] | 3.18 ± 0.25 | 3.43 ± 0.23 | – | –
SKAWHQKSHFQNSREWSGKEKWWD [PBXIP1] | 2.94 ± 0.04 | 3.2 ± 0.34 | – | –
KAMNMRYSDRTNIISKPVPQTLIM [FEM1C] | 2.09 ± 0.14 | 2.38 ± 0.5 | – | –
EPDNWMKEVMLFGHGTRKRVPLGR [RSAD1] | 3.69 ± 0.29 | 3.32 ± 0.15 | – | –
SKIPHILKEMYDADLLEEEVIISW [EIF5] | 2.19 ± 0.38 | 2.4 ± 0.24 | – | –
NVGLESKYLKKREDSIPLRGLSQN [SASS6] | 4.34 ± 0.19 | 4.06 ± 0.26 | – | –
RKLLEGEESRISVPVHSFASLNIK [PRPH] | 2.96 ± 0.23 | 3.31 ± 0.41 | – | –
MQAASSKMVSAEISENRKRQWPTK [SDE2] | 4.33 ± 0.33 | 4.7 ± 0.17 | – | –
AHIHLQQLTCFSITCSSTMSYSCC [KRT34] | 3.37 ± 0.64 | 2.95 ± 0.26 | – | –
PPFWDEDQHRLYKQIKAGAYDFPS [CAMK2A] | 3.4 ± 0.28 | 3.54 ± 0.29 | – | –
FEVPYYNRGLILYRLGYFDDALED [TTC32] | 2.5 ± 0.44 | 2.23 ± 0.36 | – | –
AHEYIFCFVLGFFYPVMLILFLVI [SOAT2] | 2.98 ± 0.56 | 3.03 ± 0.23 | – | –
LRQFDLAWQYGPCTGITRLQRWCR [POLD4] | 2.26 ± 0.21 | 2.32 ± 0.27 | – | –
LPGLAGPSGEMVKSTTSLTSSSTS [MLH1] | 4.83 ± 0.17 | 4.82 ± 0.058 | – | –
YRFYFYMWKFVSPLCMAVLTTASI [SLC6A17] | – | 4.42 ± 0.71 | – | –
FDGRHSQTLKAMVQAWPFTCLPLG [PRAME] | 2.38 ± 0.48 | 2.24 ± 0.36 | – | –
GSSDASGSYSSTMNGHQNGLDSPP [ESRRG] | 4.93 ± 0.13 | 4.99 ± 0.27 | – | –
